In paper PMC6457909 (Science (New York, N.Y.), 2019):

Molecular target: H5N1 A/Vietnam/1203/2004 hemagglutinin, trypsin-cleaved (HA1/HA2), as crystallised with JNJ4796 (influenza A virus H5N1 A/Vietnam/1203/2004) (UniProt Q5EP31)
Assay: crystal structure

Substance: H5N1 A/Vietnam/1203/2004 hemagglutinin, trypsin-cleaved (HA1/HA2), as crystallised with JNJ4796 (from UniProt Q5EP31 1-568; Q5EP31 1-568) (natural protein)
- stoichiometry N: 3
